In the supplement of paper PMC7125110:
± gives the standard error. Fewer inactive variants are shown than the library holds.

B1: glmS ribozyme (parent)
chain: AUAAAAGCGCCAGAACUACAGAAAUGUAGUUGACGAGGAGGAGGUUUAUCGAAUUUUCGGCGGAUGCCUCCAAA

Columns and labels:
Details in all cases: with glucosamine-6-phosphate
[1] = variants of: B1; test: self-cleavage kobs at 640 uM GlcN6P; higher = faster cleavage; RNA array
Summary of the method: (§1)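 Glucosamine-6-phosphate in HEPES/KCl/Mg(OAc)2 buffer, at 40 μM to 10 mM, was flowed over barcoded ribozyme variants transcribed in situ by E. coli RNA polymerase on sequenced MiSeq chips. Tracking was through a hybridised Cy3 probe at 37 °C. kobs, kcat and KM came from exponential decay fits and weighted Michaelis–Menten fits of normalised per-tile medians.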

[2] = variants of: B1; test: self-cleavage kobs at 2500 uM GlcN6P; higher = faster cleavage; RNA array
Summary of the method: as §1

[3] = variants of: B1; test: self-cleavage kobs at 10000 uM GlcN6P; higher = faster cleavage; RNA array
Summary of the method: as §1

Variant	self-cleavage kobs at 640 uM GlcN6P [1]	self-cleavage kobs at 2500 uM GlcN6P [2]	self-cleavage kobs at 10000 uM GlcN6P [3]
G9A A36U U56G	< 1e-05 s⁻¹		
G38C U57G	< 1e-05 s⁻¹		
G29A A53G C68G	7.36e-05 ± 2.4e-05 s⁻¹	7.42e-05 ± 2e-05 s⁻¹	
C11U U65G C67G	0.000877 ± 0.00023 s⁻¹		0.000136 ± 2.6e-05 s⁻¹
A14C C34G A36C G59C	< 1e-05 s⁻¹		
U49A G63U	< 1e-05 s⁻¹		
U47A C61U U69G	0.00233 ± 0.0008 s⁻¹		
A6U C11U U31C G40A G44A U55A	< 1e-05 s⁻¹		
A12G G40U G41C	< 1e-05 s⁻¹		
C50U U57A C68A U69G C71G	8.81e-05 ± 3.4e-05 s⁻¹		
A14G G66U C67G	0.000361 ± 7.9e-05 s⁻¹	0.00105 ± 0.00021 s⁻¹	
C8U G43A U54C	< 1e-05 s⁻¹		
C10G G38U U49G C58G A64C U65A C67U C68U	0.000308 ± 8.3e-05 s⁻¹		
U47A G62A	< 1e-05 s⁻¹	< 1e-05 s⁻¹	
C10G A48U A52U	< 1e-05 s⁻¹		
G7U C58G C61G	0.000789 ± 0.00019 s⁻¹		
G29U U30C A52U	< 1e-05 s⁻¹	< 1e-05 s⁻¹	
C10U A12U C50U C70U	0.000161 ± 6.4e-05 s⁻¹		
G40A G43U C50A	< 1e-05 s⁻¹		
A15U C16G G37C	< 1e-05 s⁻¹		
U54A G66A C67A	0.00151 ± 0.00064 s⁻¹	0.00163 ± 0.00044 s⁻¹	
U31A A33U U55A C58G	< 1e-05 s⁻¹	< 1e-05 s⁻¹	

Variant	self-cleavage kobs at 640 uM GlcN6P [1]	self-cleavage kobs at 2500 uM GlcN6P [2]	self-cleavage kobs at 10000 uM GlcN6P [3]
C50G G62A C68G	0.000159 ± 4.6e-05 s⁻¹		0.000111 ± 2.9e-05 s⁻¹
A33G A48C C61A C67G	< 1e-05 s⁻¹		< 1e-05 s⁻¹
A6U G35U G43U	< 1e-05 s⁻¹	< 1e-05 s⁻¹	
A12G G29A U30A U45G G62A C71U	< 1e-05 s⁻¹	< 1e-05 s⁻¹	
C10A A48C G59C	< 1e-05 s⁻¹		
U30G U47C	0.000187 ± 6.5e-05 s⁻¹	0.00013 ± 6.3e-05 s⁻¹	
G43U U47C G63U	< 1e-05 s⁻¹	< 1e-05 s⁻¹	
G32C G51U C70A	0.000153 ± 5.2e-05 s⁻¹		7.14e-05 ± 3e-05 s⁻¹
G41C A42C C50G	< 1e-05 s⁻¹		
A36U U65C C70G	0.000173 ± 7.9e-05 s⁻¹		
C11U C16U U45A	0.000806 ± 0.00021 s⁻¹	0.00127 ± 0.00037 s⁻¹	
A12U C16U A42U	0.000196 ± 4.1e-05 s⁻¹		
U45G A52C U55C C70G	< 1e-05 s⁻¹	< 1e-05 s⁻¹	
A15G G35C A53U	< 1e-05 s⁻¹	< 1e-05 s⁻¹	< 1e-05 s⁻¹
G43A G44U C68G	< 1e-05 s⁻¹	< 1e-05 s⁻¹	
U46C A48U C50G G51U	< 1e-05 s⁻¹	< 1e-05 s⁻¹	< 1e-05 s⁻¹
G29U A36U U69G	0.00026 ± 0.00011 s⁻¹	0.000178 ± 7.3e-05 s⁻¹	
G13C A15U C61U	< 1e-05 s⁻¹		
G9U A12C A33G	< 1e-05 s⁻¹	< 1e-05 s⁻¹	
G9A C10U C58U	< 1e-05 s⁻¹		
C11G A42U G51U G62C	< 1e-05 s⁻¹	< 1e-05 s⁻¹	
G9A U45A C50G C68U	< 1e-05 s⁻¹		< 1e-05 s⁻¹

Variant	self-cleavage kobs at 640 uM GlcN6P [1]	self-cleavage kobs at 2500 uM GlcN6P [2]	self-cleavage kobs at 10000 uM GlcN6P [3]
G7A A39C	< 1e-05 s⁻¹	< 1e-05 s⁻¹	
A15G C58A C68G	0.000265 ± 8.6e-05 s⁻¹		
G32U A33U G35U A36C C50U	< 1e-05 s⁻¹		
A6C C10A G32A G51A A52G A53G G59C G63U C68A	0.000154 ± 5.6e-05 s⁻¹		
A6G C16G U57C	< 1e-05 s⁻¹		
C11A A36U C70G	0.000284 ± 7e-05 s⁻¹	0.000767 ± 0.00032 s⁻¹	
A36G U45A C61U U69G C70A	< 1e-05 s⁻¹	< 1e-05 s⁻¹	
G32A G51U C68G	0.000156 ± 5.8e-05 s⁻¹		
A12G U55G G62C	< 1e-05 s⁻¹		< 1e-05 s⁻¹
C8G C11A A39C	< 1e-05 s⁻¹		
A6U G29C A48U	< 1e-05 s⁻¹		
A48C U55G	0.000142 ± 3.3e-05 s⁻¹	0.00018 ± 7e-05 s⁻¹	
U30G U31C A39U	0.000202 ± 6.1e-05 s⁻¹		0.00122 ± 0.00026 s⁻¹
A6C G29U A33U	< 1e-05 s⁻¹		
A15C C58A C67G C71G	4.54e-05 ± 1.8e-05 s⁻¹		
A12C A14C G32A G44C C70G	< 1e-05 s⁻¹	< 1e-05 s⁻¹	
G32A G37C C61U C67U	< 1e-05 s⁻¹		
A14U C34U G35A C71U	< 1e-05 s⁻¹		
C11U A15U G38U G41U U57A	< 1e-05 s⁻¹	< 1e-05 s⁻¹	
C8U U31C U69A	0.00179 ± 0.00081 s⁻¹		
U30G A39C U55G	0.000198 ± 5.5e-05 s⁻¹	0.000726 ± 0.00014 s⁻¹	0.00144 ± 0.00047 s⁻¹
C8U U55G G60U	< 1e-05 s⁻¹		

Variant	self-cleavage kobs at 640 uM GlcN6P [1]	self-cleavage kobs at 2500 uM GlcN6P [2]	self-cleavage kobs at 10000 uM GlcN6P [3]
C8G A33C U45C U56C G59C	< 1e-05 s⁻¹	< 1e-05 s⁻¹	
C10G A14C G44C G51C	< 1e-05 s⁻¹		
A33U U46C G63A	< 1e-05 s⁻¹	< 1e-05 s⁻¹	
A6U G29A G44U	< 1e-05 s⁻¹		
A12U C16A A53C	0.000148 ± 3.3e-05 s⁻¹	0.000358 ± 7.9e-05 s⁻¹	
G41U A53U U56G G66A	5.34e-05 ± 1.9e-05 s⁻¹	0.000221 ± 4.9e-05 s⁻¹	
U47C U69G	4.72e-05 ± 1.9e-05 s⁻¹	0.000104 ± 2.3e-05 s⁻¹	6.08e-05 ± 1.5e-05 s⁻¹
G40C G44U U47C U55A	< 1e-05 s⁻¹	< 1e-05 s⁻¹	
C34A G43U U55G U57G C61A	< 1e-05 s⁻¹		
A6G A52G G60A	< 1e-05 s⁻¹	< 1e-05 s⁻¹	
C8G G32A A53G	< 1e-05 s⁻¹		
C8G A12U G43A C67A	< 1e-05 s⁻¹	< 1e-05 s⁻¹	
C11U U31C G35C A36U	< 1e-05 s⁻¹	< 1e-05 s⁻¹	
A33C U45C U56G G62A U65C	< 1e-05 s⁻¹		
C8A A12U A15U C70A	< 1e-05 s⁻¹		
G7U G43U U45A C58A	< 1e-05 s⁻¹	< 1e-05 s⁻¹	
G13A U31G A33U	< 1e-05 s⁻¹	< 1e-05 s⁻¹	
U47A C50G C67U C71A	0.000221 ± 0.00011 s⁻¹		0.000134 ± 2.8e-05 s⁻¹
A12C A15C U30G U49G G59A A64G	< 1e-05 s⁻¹	< 1e-05 s⁻¹	
C34G A48G C70U	< 1e-05 s⁻¹		
C10U C34G U46A A48U U69A	< 1e-05 s⁻¹	< 1e-05 s⁻¹	< 1e-05 s⁻¹
G9U G13U G29U G37C	< 1e-05 s⁻¹	< 1e-05 s⁻¹	

Variant	self-cleavage kobs at 640 uM GlcN6P [1]	self-cleavage kobs at 2500 uM GlcN6P [2]	self-cleavage kobs at 10000 uM GlcN6P [3]
G32A C50G	6.29e-05 ± 2.1e-05 s⁻¹		2.9e-05 ± 1.4e-05 s⁻¹
G40C A42C A48C A52U	< 1e-05 s⁻¹		< 1e-05 s⁻¹
U30A U54C G63A	< 1e-05 s⁻¹		
C11G U49C C68G U69C	< 1e-05 s⁻¹		
C10G A33U G35C G41U U54C C70U	< 1e-05 s⁻¹	< 1e-05 s⁻¹	
G41U U55G A64G	8.52e-05 ± 3.1e-05 s⁻¹	0.000147 ± 4.4e-05 s⁻¹	
C11G G38A G43C	< 1e-05 s⁻¹	< 1e-05 s⁻¹	
C10A G35C U55C	< 1e-05 s⁻¹	< 1e-05 s⁻¹	
G38U C58U C67U C70U C71A	9.38e-05 ± 3.9e-05 s⁻¹		
G44U U54G C68A	< 1e-05 s⁻¹		
G38C U49A	< 1e-05 s⁻¹	< 1e-05 s⁻¹	< 1e-05 s⁻¹
A33U G37A G59A	< 1e-05 s⁻¹		
U47C U49C G62A G63A	< 1e-05 s⁻¹		
A6G G51U U56A C71U	< 1e-05 s⁻¹		< 1e-05 s⁻¹
A42C G43U G44U G51U	< 1e-05 s⁻¹		
A48G C58A C67G C70U	0.000135 ± 4.4e-05 s⁻¹	6.91e-05 ± 2.5e-05 s⁻¹	4.32e-05 ± 1.3e-05 s⁻¹
G13A C50G U55A C67U	0.000168 ± 8.1e-05 s⁻¹	7.15e-05 ± 2.6e-05 s⁻¹	
U45A A48C G60U C67U	< 1e-05 s⁻¹		
G37U U55G U69G	3.09e-05 ± 1.4e-05 s⁻¹		
A12C A42U C68U	5.31e-05 ± 1.5e-05 s⁻¹	0.000111 ± 2.6e-05 s⁻¹	
A14U G29U C50G	8.61e-05 ± 3.2e-05 s⁻¹		
G43A G62U C67A	< 1e-05 s⁻¹	< 1e-05 s⁻¹	

Variant	self-cleavage kobs at 640 uM GlcN6P [1]	self-cleavage kobs at 2500 uM GlcN6P [2]	self-cleavage kobs at 10000 uM GlcN6P [3]
G44A C61A G66A	< 1e-05 s⁻¹		
G9U A36G U45C A48C G60U C68G	< 1e-05 s⁻¹	< 1e-05 s⁻¹	< 1e-05 s⁻¹
A12C G29A C58G U65G C68G	0.000168 ± 6e-05 s⁻¹	8.36e-05 ± 2.2e-05 s⁻¹	
C8U G35A U49A	< 1e-05 s⁻¹		
C8A A53U C58A G59U	< 1e-05 s⁻¹		
U30A U46G C67U	0.000117 ± 3.4e-05 s⁻¹	0.00027 ± 0.0001 s⁻¹	
A15U C16U G51C C58G C61G C67U	0.000417 ± 8.1e-05 s⁻¹		
A39G C50G C67U	0.000571 ± 0.00018 s⁻¹	0.000299 ± 0.00012 s⁻¹	
A33G A39C G41A C50A	< 1e-05 s⁻¹		
G38U A48U C61G C71U	< 1e-05 s⁻¹		
A14C U30C G38U A39U A53U U55G	< 1e-05 s⁻¹	< 1e-05 s⁻¹	
G32A A36U G62U C70G	0.000218 ± 8.5e-05 s⁻¹		
U45G U49G	0.000102 ± 1.6e-05 s⁻¹	0.000422 ± 8.4e-05 s⁻¹	
G7U U46C U65A	< 1e-05 s⁻¹	< 1e-05 s⁻¹	
U30A G43A	< 1e-05 s⁻¹		
U69G C71A	6.61e-05 ± 2.3e-05 s⁻¹		
C8A A12G G32A	< 1e-05 s⁻¹		< 1e-05 s⁻¹
A6G A36C G37U G40A C61A U65A	< 1e-05 s⁻¹	< 1e-05 s⁻¹	
C16U A39C U65G	0.000131 ± 3.8e-05 s⁻¹	8.33e-05 ± 2.6e-05 s⁻¹	0.000837 ± 0.00011 s⁻¹
A12C G29C G37A U55A	4.45e-05 ± 1.9e-05 s⁻¹		
C34A A42C C61U	< 1e-05 s⁻¹	< 1e-05 s⁻¹	
G51U G66A	< 1e-05 s⁻¹	< 1e-05 s⁻¹	
